According to US7507788B2, “Peptides and methods for cell death regulation” (Rappaport Family Institute for Research in the Medical …, priority 2002, dated 2009):
Values belong to the molecule of their own block, whether it stands above or below them.

Experiments:
[1] = biological target: T1, human XIAP (Homo sapiens, UniProt P98170); experiment: In vitro ubiquitination / self-conjugation reaction with 35S-labeled XIAP; format: biochemical; details: 35S-XIAP; FIG. 8, 15B, 16, 17
T1 construct: host or cells: cell-free in vitro transcription-translation; the partner His-UBCH5C was made in E. coli BL21 (pLysS)
Procedure: ^35S-methionine labeled mutant and wild type DIAP1, or wild type XIAP were generated in an in vitro transcription-translation system (Promega) from diap1-pET14b, diap1^21-4S pET14b and xiap pcDNA3.1 plasmids. For purification of His-UBCD1 and His-UBCH5C, ubcD1-pET14b and ubcH5C-pT7-7 were expressed in BL21 (pLysS) and purified on a Ni-column according to the manufacturer's protocol (Novagen). In vitro ubiquitination assays were carried out in a total volume of 12.5 μl and contained: ^35S-methionine labeled wild type or mutant DIAP1 or Wild type XIAP (approximately 10,000 cpm), and 250ng E1 (made in baculovirus; vector is the kind gift of Dr. Kazuhiro Iwai, University of Osaka, Osaka, Japan). Unless otherwise stated, 1.2 μg His-UBCD1 or His-UBCH5C was used in each reaction. Reaction mixture contained also 40 mM Tris-HCl, pH 7.6, 5 mM MgCl2, 1 mM DTT, 5 μg ubiquitin, 100 ng Ubiquitin-aldehyde, 2 mM ATPγS [Adenosine 5′-O-(3-thiotriphosphate)]. Reactions were incubated for 50 min at 37° C., and resolved, following addition of a sample buffer on SDS-PAGE (10%). Gels were dried and proteins visualized via Phosphorimaging (Fuji, Japan).

[2] = biological target: T2, DIAP1 (Drosophila melanogaster, UniProt Q24306); experiment: In vitro ubiquitination / self-conjugation reaction with 35S-labeled DIAP1; format: biochemical; details: 35S-DIAP1 with E1, UBCD1 and ubiquitin; SDS-PAGE; FIG. 13-15A
T2 construct: The full length ORF of diap1 was subcloned into the BamH1 site of pET14b (Novagen); His (N); host or cells: cell-free in vitro transcription-translation (reticulocyte lysate); the partner His-UBCD1 was made in E. coli BL21 (pLysS)
T2 sequence (Q24306 1-438): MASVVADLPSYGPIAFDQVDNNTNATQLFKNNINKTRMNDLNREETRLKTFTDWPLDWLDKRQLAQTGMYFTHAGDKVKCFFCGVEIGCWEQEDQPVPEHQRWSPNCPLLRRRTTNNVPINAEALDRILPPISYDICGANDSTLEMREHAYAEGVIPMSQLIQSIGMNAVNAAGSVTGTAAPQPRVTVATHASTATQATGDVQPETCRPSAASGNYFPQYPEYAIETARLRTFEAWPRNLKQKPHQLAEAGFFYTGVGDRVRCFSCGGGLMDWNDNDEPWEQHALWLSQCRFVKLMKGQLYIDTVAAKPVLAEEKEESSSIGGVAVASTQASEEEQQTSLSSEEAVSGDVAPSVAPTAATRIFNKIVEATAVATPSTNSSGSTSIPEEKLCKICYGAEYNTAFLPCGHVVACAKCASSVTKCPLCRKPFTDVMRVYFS
Procedure: ^35S-methionine labeled mutant and wild type DIAP1, or wild type XIAP were generated in an in vitro transcription-translation system (Promega) from diap1-pET14b, diap1^21-4S pET14b and xiap pcDNA3.1 plasmids. For purification of His-UBCD1 and His-UBCH5C, ubcD1-pET14b and ubcH5C-pT7-7 were expressed in BL21 (pLysS) and purified on a Ni-column according to the manufacturer's protocol (Novagen). In vitro ubiquitination assays were carried out in a total volume of 12.5 μl and contained: ^35S-methionine labeled wild type or mutant DIAP1 or Wild type XIAP (approximately 10,000 cpm), and 250ng E1 (made in baculovirus; vector is the kind gift of Dr. Kazuhiro Iwai, University of Osaka, Osaka, Japan). […]
In order to determine whether both amino acid consensus sequences described above are essential for IAP degradation, peptides were generated, with amino acid sequences as described in Tables 1, 3 and 5 above, containing one of each amino acid consensus sequence, or both, and their ability to stimulate in vitro IAP ubiquitination was assessed (FIG. 13). ^35S-methionine labeled wild type DIAP1 was incubated with 250 ng E1 and ubiquitin, with or without the addition of the RPR wild type protein, or peptides containing the RHG amino acid consensus sequence of the RPR HID or GRIM proteins, and the reaction products were resolved by SDS-PAGE.

T1 sequence (P98170 whole entry): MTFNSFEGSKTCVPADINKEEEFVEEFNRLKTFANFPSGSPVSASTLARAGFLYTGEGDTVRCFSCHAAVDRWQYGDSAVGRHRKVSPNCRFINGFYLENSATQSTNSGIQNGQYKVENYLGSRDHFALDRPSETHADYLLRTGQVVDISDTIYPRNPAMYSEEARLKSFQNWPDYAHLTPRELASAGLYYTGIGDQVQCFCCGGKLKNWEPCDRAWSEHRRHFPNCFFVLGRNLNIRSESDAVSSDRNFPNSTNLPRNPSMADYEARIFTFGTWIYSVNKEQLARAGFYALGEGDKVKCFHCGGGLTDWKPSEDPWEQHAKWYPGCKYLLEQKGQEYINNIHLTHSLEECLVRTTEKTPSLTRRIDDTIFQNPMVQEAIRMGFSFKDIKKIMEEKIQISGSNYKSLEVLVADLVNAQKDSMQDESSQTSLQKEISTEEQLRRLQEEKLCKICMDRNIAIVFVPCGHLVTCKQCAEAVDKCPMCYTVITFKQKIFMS

- stimulation of XIAP auto-ubiquitination / self-conjugation in vitro [1]: greatest effect
Molecule: AVAFYIPDQATLLR QWRFLATVVL (AVAFYIPDQATLLRQWRFLATVVL; Drosophila melanogaster) [Peptide R15W, Reaper RHG plus Trp-box peptide]

- stimulation of XIAP auto-ubiquitination / self-conjugation in vitro [1]: greatest effect
Molecule: AVPFYLPE QWRFLATVVL (AVPFYLPEQWRFLATVVL; Drosophila melanogaster) [Peptide H9-W, Hid RHG plus Reaper Trp-box peptide]

- stimulation of IAP (DIAP1) self-conjugation / auto-ubiquitination in vitro [2]: resulted in auto-ubiquitination
- stimulation of XIAP auto-ubiquitination / self-conjugation in vitro [1]: strongly stimulated
B1: Reaper: wild type Drosophila IAP inhibitor (IAPi) protein REAPER (RPR) (protein)
chain: MAVAFYIPDQATLLREAEQKEQQILRLRESQWRFLATVVLETLRQYTSCHPKTGRKSGKYRKPSQ
